Assay results as given in paper PMC5761276 (Journal of the American Chemical Society, 2017).

Assays:
[1] = biological target: T1, Grb2-Alexa Fluor 647 (UniProt P62993 1-217, Alexa Fluor 647 (site not stated)); assay: single-molecule dwell time analysis
[2] = biological target: T1, Grb2-Alexa Fluor 647; assay: ITC

T1 sequence (P62993 whole entry): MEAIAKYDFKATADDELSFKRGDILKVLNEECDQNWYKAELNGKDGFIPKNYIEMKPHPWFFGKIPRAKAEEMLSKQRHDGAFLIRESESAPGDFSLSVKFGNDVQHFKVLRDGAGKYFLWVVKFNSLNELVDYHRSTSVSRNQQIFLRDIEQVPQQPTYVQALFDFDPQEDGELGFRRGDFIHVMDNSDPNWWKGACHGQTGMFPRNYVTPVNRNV

B1: LAT-FFFY (monovalent LAT1Y, residue 48-233), phosphorylated (domain or fragment)
chain: GIQFKRPHTVAPWPPAFPPVTSFPPLSQPDLLPIPRSPQPLGGSHRTPSSRRDSDGANSVASFENEEPACEDADEDEDDFHNPGFLVVLPDSTPATSTAAPSAPALSTPGIRDSAFSMESIDDFVNVPESGESAEASLDGSREFVNVSQELHPGAAKTEPAALSSQEAEEVEEEGAPDYENLQELN
modifications: phosphotyrosine at Y226; Alexa Fluor 568 (site not stated)
B1 gave a koff [1] of 1.4 s⁻¹ and a Kd [2] of 459 nM.

B2: LAT-FFYF (monovalent LAT1Y, residue 48-233), phosphorylated (domain or fragment)
chain: GIQFKRPHTVAPWPPAFPPVTSFPPLSQPDLLPIPRSPQPLGGSHRTPSSRRDSDGANSVASFENEEPACEDADEDEDDFHNPGFLVVLPDSTPATSTAAPSAPALSTPGIRDSAFSMESIDDFVNVPESGESAEASLDGSREYVNVSQELHPGAAKTEPAALSSQEAEEVEEEGAPDFENLQELN
modifications: phosphotyrosine at Y191; Alexa Fluor 568 (site not stated)
Work on B2 yielded a koff [1] of 3.3 s⁻¹ and a Kd [2] of 195 nM.
